Paper PMC4814101
pKd: −log10 of the molar value.

Experiments:
[1] = target: Bothropstoxin II (Bothrops jararacussu) (UniProt P45881); test: SPR; Biacore T200; […]; 30 μL/min, 37°C; running buffer 0.1 M phosphate, 27 mM KCl, 1.37 M NaCl, pH 7.4; 1:1 Langmuir model
[2] = target: Bothropstoxin I (Bothrops jararacussu) (UniProt Q90249); test: as above
UniProt Q90249, sequence (Q90249 17-137): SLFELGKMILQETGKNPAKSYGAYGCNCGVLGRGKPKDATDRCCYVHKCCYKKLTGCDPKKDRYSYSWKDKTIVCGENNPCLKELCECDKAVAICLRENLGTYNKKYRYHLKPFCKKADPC

UniProt P45881, sequence (P45881 17-138): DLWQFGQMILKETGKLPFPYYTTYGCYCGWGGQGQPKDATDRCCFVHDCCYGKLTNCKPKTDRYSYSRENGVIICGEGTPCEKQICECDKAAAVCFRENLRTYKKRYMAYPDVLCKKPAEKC

Row | Substance | pKd [1] | koff [1] | kon [1] | pKd [2] | koff [2] | kon [2]
1 | VHH KC329718 | 6.11 | 0.258 s⁻¹ | 335000 M⁻¹ s⁻¹ | 7.27 | 0.0346 s⁻¹ | 642000 M⁻¹ s⁻¹
2 | VHH KF498608 | 7.37 | 0.0302 s⁻¹ |  | 6.18 | 0.119 s⁻¹ | 179000 M⁻¹ s⁻¹
3 | VHH KF498607 |  | 0.516 s⁻¹ | 184000 M⁻¹ s⁻¹ | 6.20 | 0.162 s⁻¹ | 257000 M⁻¹ s⁻¹
